Results on nine proteins are retold here after article PMC12455010.

Data set [1] can be described thus: automated whole-cell patch clamp, inactivation width at +80 mV. On the technique in general: In patch-clamp work, channel activity is measured electrically.
Data set [2] is described as follows: cell surface biotinylation, western blot. The settings on record: glycan lost. On the technique in general: A western blot detects proteins with antibodies after separation by electrophoresis.
Setting [3] is: glycan changed form, control: low glucose.
Where [4] appears, read: glycan changed form, control: untreated.

B1: rat Kv3.4 (rKv3.4): tunicamycin (protein)
parent chain: MISSVCVSSYRGRKSGNKPPSKTCLKEEMAKGEASEKIIINVGGTRHETYRSTLRTLPGTRLAWLADPDGGGRPESDGGGAGSSGSSGGGGGCEFFFDRHPGVFAYVLNYYRTGKLHCPADVCGPLFEEELTFWGIDETDVEPCCWMTYRQHRDAEEALDIFESPDGGGGGAGPGDEAGDDERELALQRLGPHEGGSGPGAGSGGCRGWQPRMWALFEDPYSSRAARVVAFASLFFILVSITTFCLETHEAFNIDRNVTEIHRVGNITSVRFRREVETEPILTYIEGVCVMWFTLEFLVRIVCCPDTLDFVKNLLNIIDFVAILPFYLEVGLSGLSSKAARDVLGFLRVVRFVRILRIFKLTRHFVGLRVLGHTLRASTNEFLLLIIFLALGVLIFATMIYYAERIGARPSDPRGNDHTDFKNIPIGFWWAVVTMTTLGYGDMYPKTWSGMLVGALCALAGVLTIAMPVPVIVNNFGMYYSLAMAKQKLPKKRKKHVPRPPQLESPIYCKSEETSPRDSTYSDTSPPAREEGMVERKRADSKQNGDANAVLSDEEGAGLTQPLASAPTPEERRALRRSGTRDRNKKAAACFLLSAGDYACADGSVQKEGSVEPKACVPVSHTCAL
B1: in data set [1] (glycan lost, control: untreated), the “other: channel inactivation delay and its heterogeneity” value was “decreases”. Also, in data set [2] (control: untreated), the localisation_or_trafficking entry was “no change”.

B2: rat Kv3.4 (rKv3.4): N257/266Q (protein)
parent chain: MISSVCVSSYRGRKSGNKPPSKTCLKEEMAKGEASEKIIINVGGTRHETYRSTLRTLPGTRLAWLADPDGGGRPESDGGGAGSSGSSGGGGGCEFFFDRHPGVFAYVLNYYRTGKLHCPADVCGPLFEEELTFWGIDETDVEPCCWMTYRQHRDAEEALDIFESPDGGGGGAGPGDEAGDDERELALQRLGPHEGGSGPGAGSGGCRGWQPRMWALFEDPYSSRAARVVAFASLFFILVSITTFCLETHEAFNIDRNVTEIHRVGNITSVRFRREVETEPILTYIEGVCVMWFTLEFLVRIVCCPDTLDFVKNLLNIIDFVAILPFYLEVGLSGLSSKAARDVLGFLRVVRFVRILRIFKLTRHFVGLRVLGHTLRASTNEFLLLIIFLALGVLIFATMIYYAERIGARPSDPRGNDHTDFKNIPIGFWWAVVTMTTLGYGDMYPKTWSGMLVGALCALAGVLTIAMPVPVIVNNFGMYYSLAMAKQKLPKKRKKHVPRPPQLESPIYCKSEETSPRDSTYSDTSPPAREEGMVERKRADSKQNGDANAVLSDEEGAGLTQPLASAPTPEERRALRRSGTRDRNKKAAACFLLSAGDYACADGSVQKEGSVEPKACVPVSHTCAL
Take B2: the localisation_or_trafficking result in data set [2] (control: wild type) is “no change”.

B3: rat Kv3.4 (rKv3.4): mannose recovery (protein)
parent chain: MISSVCVSSYRGRKSGNKPPSKTCLKEEMAKGEASEKIIINVGGTRHETYRSTLRTLPGTRLAWLADPDGGGRPESDGGGAGSSGSSGGGGGCEFFFDRHPGVFAYVLNYYRTGKLHCPADVCGPLFEEELTFWGIDETDVEPCCWMTYRQHRDAEEALDIFESPDGGGGGAGPGDEAGDDERELALQRLGPHEGGSGPGAGSGGCRGWQPRMWALFEDPYSSRAARVVAFASLFFILVSITTFCLETHEAFNIDRNVTEIHRVGNITSVRFRREVETEPILTYIEGVCVMWFTLEFLVRIVCCPDTLDFVKNLLNIIDFVAILPFYLEVGLSGLSSKAARDVLGFLRVVRFVRILRIFKLTRHFVGLRVLGHTLRASTNEFLLLIIFLALGVLIFATMIYYAERIGARPSDPRGNDHTDFKNIPIGFWWAVVTMTTLGYGDMYPKTWSGMLVGALCALAGVLTIAMPVPVIVNNFGMYYSLAMAKQKLPKKRKKHVPRPPQLESPIYCKSEETSPRDSTYSDTSPPAREEGMVERKRADSKQNGDANAVLSDEEGAGLTQPLASAPTPEERRALRRSGTRDRNKKAAACFLLSAGDYACADGSVQKEGSVEPKACVPVSHTCAL
As for B3, the “other: channel inactivation delay and its heterogeneity” value in data set [1] (setting [3]) is listed as “increases”.

B4: rat Kv3.4 (rKv3.4): kifunensine (Kf) (protein)
parent chain: MISSVCVSSYRGRKSGNKPPSKTCLKEEMAKGEASEKIIINVGGTRHETYRSTLRTLPGTRLAWLADPDGGGRPESDGGGAGSSGSSGGGGGCEFFFDRHPGVFAYVLNYYRTGKLHCPADVCGPLFEEELTFWGIDETDVEPCCWMTYRQHRDAEEALDIFESPDGGGGGAGPGDEAGDDERELALQRLGPHEGGSGPGAGSGGCRGWQPRMWALFEDPYSSRAARVVAFASLFFILVSITTFCLETHEAFNIDRNVTEIHRVGNITSVRFRREVETEPILTYIEGVCVMWFTLEFLVRIVCCPDTLDFVKNLLNIIDFVAILPFYLEVGLSGLSSKAARDVLGFLRVVRFVRILRIFKLTRHFVGLRVLGHTLRASTNEFLLLIIFLALGVLIFATMIYYAERIGARPSDPRGNDHTDFKNIPIGFWWAVVTMTTLGYGDMYPKTWSGMLVGALCALAGVLTIAMPVPVIVNNFGMYYSLAMAKQKLPKKRKKHVPRPPQLESPIYCKSEETSPRDSTYSDTSPPAREEGMVERKRADSKQNGDANAVLSDEEGAGLTQPLASAPTPEERRALRRSGTRDRNKKAAACFLLSAGDYACADGSVQKEGSVEPKACVPVSHTCAL
With B4, the “other: channel inactivation delay and its heterogeneity” value in data set [1] (setting [4]) is recorded as “decreases”.

B5: rat Kv3.4 (rKv3.4): swainsonine (Sw) (protein)
parent chain: MISSVCVSSYRGRKSGNKPPSKTCLKEEMAKGEASEKIIINVGGTRHETYRSTLRTLPGTRLAWLADPDGGGRPESDGGGAGSSGSSGGGGGCEFFFDRHPGVFAYVLNYYRTGKLHCPADVCGPLFEEELTFWGIDETDVEPCCWMTYRQHRDAEEALDIFESPDGGGGGAGPGDEAGDDERELALQRLGPHEGGSGPGAGSGGCRGWQPRMWALFEDPYSSRAARVVAFASLFFILVSITTFCLETHEAFNIDRNVTEIHRVGNITSVRFRREVETEPILTYIEGVCVMWFTLEFLVRIVCCPDTLDFVKNLLNIIDFVAILPFYLEVGLSGLSSKAARDVLGFLRVVRFVRILRIFKLTRHFVGLRVLGHTLRASTNEFLLLIIFLALGVLIFATMIYYAERIGARPSDPRGNDHTDFKNIPIGFWWAVVTMTTLGYGDMYPKTWSGMLVGALCALAGVLTIAMPVPVIVNNFGMYYSLAMAKQKLPKKRKKHVPRPPQLESPIYCKSEETSPRDSTYSDTSPPAREEGMVERKRADSKQNGDANAVLSDEEGAGLTQPLASAPTPEERRALRRSGTRDRNKKAAACFLLSAGDYACADGSVQKEGSVEPKACVPVSHTCAL
As for B5, the “other: channel inactivation delay and its heterogeneity” value in data set [1] (setting [4]) is listed as “decreases”.

B6: rat Kv3.4 (rKv3.4): siGlut1 (protein)
parent chain: MISSVCVSSYRGRKSGNKPPSKTCLKEEMAKGEASEKIIINVGGTRHETYRSTLRTLPGTRLAWLADPDGGGRPESDGGGAGSSGSSGGGGGCEFFFDRHPGVFAYVLNYYRTGKLHCPADVCGPLFEEELTFWGIDETDVEPCCWMTYRQHRDAEEALDIFESPDGGGGGAGPGDEAGDDERELALQRLGPHEGGSGPGAGSGGCRGWQPRMWALFEDPYSSRAARVVAFASLFFILVSITTFCLETHEAFNIDRNVTEIHRVGNITSVRFRREVETEPILTYIEGVCVMWFTLEFLVRIVCCPDTLDFVKNLLNIIDFVAILPFYLEVGLSGLSSKAARDVLGFLRVVRFVRILRIFKLTRHFVGLRVLGHTLRASTNEFLLLIIFLALGVLIFATMIYYAERIGARPSDPRGNDHTDFKNIPIGFWWAVVTMTTLGYGDMYPKTWSGMLVGALCALAGVLTIAMPVPVIVNNFGMYYSLAMAKQKLPKKRKKHVPRPPQLESPIYCKSEETSPRDSTYSDTSPPAREEGMVERKRADSKQNGDANAVLSDEEGAGLTQPLASAPTPEERRALRRSGTRDRNKKAAACFLLSAGDYACADGSVQKEGSVEPKACVPVSHTCAL
Consider B6, for which, in data set [1] (glycan changed form, control: siNeg), the “other: channel inactivation delay and its heterogeneity” value is “decreases”.

B7: rat Kv3.4 (rKv3.4): glucose recovery (protein)
parent chain: MISSVCVSSYRGRKSGNKPPSKTCLKEEMAKGEASEKIIINVGGTRHETYRSTLRTLPGTRLAWLADPDGGGRPESDGGGAGSSGSSGGGGGCEFFFDRHPGVFAYVLNYYRTGKLHCPADVCGPLFEEELTFWGIDETDVEPCCWMTYRQHRDAEEALDIFESPDGGGGGAGPGDEAGDDERELALQRLGPHEGGSGPGAGSGGCRGWQPRMWALFEDPYSSRAARVVAFASLFFILVSITTFCLETHEAFNIDRNVTEIHRVGNITSVRFRREVETEPILTYIEGVCVMWFTLEFLVRIVCCPDTLDFVKNLLNIIDFVAILPFYLEVGLSGLSSKAARDVLGFLRVVRFVRILRIFKLTRHFVGLRVLGHTLRASTNEFLLLIIFLALGVLIFATMIYYAERIGARPSDPRGNDHTDFKNIPIGFWWAVVTMTTLGYGDMYPKTWSGMLVGALCALAGVLTIAMPVPVIVNNFGMYYSLAMAKQKLPKKRKKHVPRPPQLESPIYCKSEETSPRDSTYSDTSPPAREEGMVERKRADSKQNGDANAVLSDEEGAGLTQPLASAPTPEERRALRRSGTRDRNKKAAACFLLSAGDYACADGSVQKEGSVEPKACVPVSHTCAL
For B7, in data set [1] (setting [3]), the “other: channel inactivation delay and its heterogeneity” value was “increases”.

B8: rat Kv3.4 (rKv3.4): low-glucose medium (protein)
parent chain: MISSVCVSSYRGRKSGNKPPSKTCLKEEMAKGEASEKIIINVGGTRHETYRSTLRTLPGTRLAWLADPDGGGRPESDGGGAGSSGSSGGGGGCEFFFDRHPGVFAYVLNYYRTGKLHCPADVCGPLFEEELTFWGIDETDVEPCCWMTYRQHRDAEEALDIFESPDGGGGGAGPGDEAGDDERELALQRLGPHEGGSGPGAGSGGCRGWQPRMWALFEDPYSSRAARVVAFASLFFILVSITTFCLETHEAFNIDRNVTEIHRVGNITSVRFRREVETEPILTYIEGVCVMWFTLEFLVRIVCCPDTLDFVKNLLNIIDFVAILPFYLEVGLSGLSSKAARDVLGFLRVVRFVRILRIFKLTRHFVGLRVLGHTLRASTNEFLLLIIFLALGVLIFATMIYYAERIGARPSDPRGNDHTDFKNIPIGFWWAVVTMTTLGYGDMYPKTWSGMLVGALCALAGVLTIAMPVPVIVNNFGMYYSLAMAKQKLPKKRKKHVPRPPQLESPIYCKSEETSPRDSTYSDTSPPAREEGMVERKRADSKQNGDANAVLSDEEGAGLTQPLASAPTPEERRALRRSGTRDRNKKAAACFLLSAGDYACADGSVQKEGSVEPKACVPVSHTCAL
Turning to B8, the “other: channel inactivation delay and its heterogeneity” value in data set [1] (setting [4]) was “decreases”.

B9: rat Kv3.4 (rKv3.4): cytochalasin B (protein)
parent chain: MISSVCVSSYRGRKSGNKPPSKTCLKEEMAKGEASEKIIINVGGTRHETYRSTLRTLPGTRLAWLADPDGGGRPESDGGGAGSSGSSGGGGGCEFFFDRHPGVFAYVLNYYRTGKLHCPADVCGPLFEEELTFWGIDETDVEPCCWMTYRQHRDAEEALDIFESPDGGGGGAGPGDEAGDDERELALQRLGPHEGGSGPGAGSGGCRGWQPRMWALFEDPYSSRAARVVAFASLFFILVSITTFCLETHEAFNIDRNVTEIHRVGNITSVRFRREVETEPILTYIEGVCVMWFTLEFLVRIVCCPDTLDFVKNLLNIIDFVAILPFYLEVGLSGLSSKAARDVLGFLRVVRFVRILRIFKLTRHFVGLRVLGHTLRASTNEFLLLIIFLALGVLIFATMIYYAERIGARPSDPRGNDHTDFKNIPIGFWWAVVTMTTLGYGDMYPKTWSGMLVGALCALAGVLTIAMPVPVIVNNFGMYYSLAMAKQKLPKKRKKHVPRPPQLESPIYCKSEETSPRDSTYSDTSPPAREEGMVERKRADSKQNGDANAVLSDEEGAGLTQPLASAPTPEERRALRRSGTRDRNKKAAACFLLSAGDYACADGSVQKEGSVEPKACVPVSHTCAL
Turning to B9, in data set [1] (setting [4]), the “other: channel inactivation delay and its heterogeneity” value is given as “decreases”.
